Results from paper PMC10052374, “Jasmonate activates a CsMPK6-CsMYC2 module that regulates the expression of β-citraurin biosynthetic genes and fruit coloration in orange (Citrus sinensis)”.

B1: CsLCYb-probe (dsDNA)
DNA 1: CGACAGTTGGACCACTAGCTTCGTGACCGTTGT
DNA 2: ACAACGGTCACGAAGCTAGTGGTCCAACTGTCG
B2: CsMPK6-probe (dsDNA)
DNA 1: AGCTCTATGTAACAACTGGGATCTATTTGAAA
DNA 2: TTTCAAATAGATCCCAGTTGTTACATAGAGCT
B3: CsPSY-probe (dsDNA)
DNA 1: AAAACTTCAATTGATACTCTTCCACTAATTCT
DNA 2: AGAATTAGTGGAAGAGTATCAATTGAAGTTTT
B4: CsCCD4b-probe (dsDNA)
DNA 1: GTACCATACAACTGTGGCACCATAGCTGGATC
DNA 2: GATCCAGCTATGGTGCCACAGTTGTATGGTAC
B5: CsBCH-probe (dsDNA)
DNA 1: AATTTCGAATCTAACAAATGTTTCGTTGATAT
DNA 2: ATATCAACGAAACATTTGTTAGATTCGAAATT

Experiments:
CsMYC2-MBP = CsMYC2-MBP (Citrus sinensis (Newhall orange), UniProt V4SX11 1-519); assay: EMSA; BLI: PBS, 100 nM biotin probe on SA sensors, CsMYC2-His 62.5-1000 nM, 1:1 fit. DNA pull-down: probe bound to beads in 10 mM Tris-HCl pH 7.5, 1 mM EDTA, 1 M NaCl, 0.1% Tween-20 at RT, then protein 1 h on ice. EMSA: as in Yue et al. 2019, buffer not given; settings: protein: recombinant; tags: MBP (pMAL-C2X); chain copies: 2; label: 3' biotin
Sequence of CsMYC2-MBP (V4SX11 entry or part of it): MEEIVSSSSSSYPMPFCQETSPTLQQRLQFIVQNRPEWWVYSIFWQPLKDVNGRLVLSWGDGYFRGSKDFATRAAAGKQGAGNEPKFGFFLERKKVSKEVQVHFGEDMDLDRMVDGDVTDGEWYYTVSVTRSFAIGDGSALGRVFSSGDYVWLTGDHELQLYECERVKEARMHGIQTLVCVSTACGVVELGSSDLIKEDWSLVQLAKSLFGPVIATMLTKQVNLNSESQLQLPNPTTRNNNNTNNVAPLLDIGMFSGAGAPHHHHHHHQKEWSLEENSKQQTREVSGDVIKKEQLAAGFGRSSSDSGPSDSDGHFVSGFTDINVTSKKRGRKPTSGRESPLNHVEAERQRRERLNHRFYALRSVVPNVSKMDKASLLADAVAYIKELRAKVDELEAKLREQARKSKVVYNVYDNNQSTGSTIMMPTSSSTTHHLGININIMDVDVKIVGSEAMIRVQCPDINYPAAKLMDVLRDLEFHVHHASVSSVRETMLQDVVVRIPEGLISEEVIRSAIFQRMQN

CsMYC2-His = CsMYC2-His (Citrus sinensis (Newhall orange), UniProt V4SX11 1-519); assay: BLI; BLI: PBS, 100 nM biotin probe on SA sensors, CsMYC2-His 62.5-1000 nM, 1:1 fit. DNA pull-down: probe bound to beads in 10 mM Tris-HCl pH 7.5, 1 mM EDTA, 1 M NaCl, 0.1% Tween-20 at RT, then protein 1 h on ice. EMSA: as in Yue et al. 2019, buffer not given; settings: protein: recombinant; tags: His (pET30A); chain copies: 2; label: 3' biotin
Sequence of CsMYC2-His (V4SX11 entry or part of it): as above

| Binder | binding result (CsMYC2-MBP) | Kd (CsMYC2-His) [nM] |
| --- | --- | --- |
| B1 | binds | – |
| B2 | binds | – |
| B3 | binds | – |
| B4 | – | 58 |
| B5 | binds | – |
